Data taken from patent publication US8911953B2, “TDF-related compounds and analogs thereof, analogs and bioactive fragments” (Thrasos Innovation, Inc., priority 2005, dated 2014).
Where two headings read alike, the source gives them in different places. Positions of bridges follow the written chain, without caps; N, C: chain ends. No end group written: not given here.

B1: BMP-7: recombinant human mature BMP-7 (BMP-7 or TDF-1), positive control therapy (protein)
chain: STGSKQRSQNRSKTPKNQEALRMANVAENSSSDQRQACKKHELYVSFRDLGWQDWIIAPEGYAAYYCEGECAFPLNSYMNATNHAIVQTLVHFINPETVPKPCCAPTQLNAISVLYFDDSSNVILKKYRNMVVRACGCH

What was measured:
PC-3 = experiment: Cancer cell proliferation, tritiated thymidine incorporation; assay type: cell-based, human; settings: PC-3 cultured in vitro
Source text: (§1) TDFRP Compound Inhibition of LNCaP Cancer Cell Proliferation. BMP-6 and a TDFRP compound (SEQ ID NO:45) inhibited the proliferation of prostate cancer cells (LNCaP and PC-3) cultured in vitro as detected by the incorporation of tritiated thymidine (a measure of cell proliferation.
(§2) Prostate cancer is one of the most common cancers in men. […] Moreover, it has been shown that BMP signals inhibit the growth and the proliferation of human prostate tumor cells by upregulating the cyclin-dependent kinase inhibitor (CDKI) p21 (CIP1/WAF1) and decreasing the activity of Cdk2, leading to hypophosphorylation of Rb proteins. TDFRP compounds have been screened in in vitro prostate and bladder cancer bioassays to assess growth inhibitory activity of the compounds (FIG. 3). ^3H-thymidine incorporation is used as a marker for cell proliferation activity in human prostate and bladder cancer cell lines. Cisplatin inhibits ^3H-thymidine incorporation, indicating a tumor-growth suppressive activity of cisplatin in both human prostate and bladder cancer cells. TDFRP compounds are assayed in these cancer cells for the ability to induce receptor-regulated Smad 1/5 phosphorylation in a dose-dependent manner (FIG.).
as §2, with “(FIGS. 3, 28).” for “(FIG. 3).”, “(FIGS. 3, 28).” for “(FIG.).”

LNCaP = experiment: as above; assay type: cell-based, human; settings: LNCaP cultured in vitro
Source text: as §1, §2
as §2, with “(FIGS. 3, 28).” for “(FIG. 3).”, “(FIGS. 3, 28).” for “(FIG.).”

ALK-3 = ALK-3 (Homo sapiens, UniProt P36894); experiment: Radioligand receptor binding assay (competition with 125I-labeled TDF-1)
Source text: Radioligand Receptor Binding Assays for ALK-3, ALK-6 and BMPR-2:
The assays are based on competition between ^125I-labeled TDF-1 (BMP-7 or OP-1 or other BMPs) and candidate TDFRP compounds or unlabeled TDF-1 for binding to respective receptors (ALK-3, ALK-6 or BMPR-2 or other BMP receptors or co-receptors). In brief, the procedure involves immobilization of receptor on 96 well Removawell plates, blocking the wells with 3% BSA in PBS and subsequently washing the wells. Increasing concentrations of unlabeled TDF-1 or TDFRP compounds or control (unlabeled TDF-1) prepared in binding buffer are then added. Incubate plate for 1 hour at room temperature, and then add a fixed amount of ^125I-labeled TDF-1 (250,000 to 350,000 cpm) to the wells and further incubate in cold (4° C.) for 20 hours. Aspirate the contents of the wells and wash the wells four times with a wash buffer, and count the receptor bound ^125I-labeled TDF-1 in an auto gamma counter.
Using this procedure, TDFRP compound binding to select ALK receptors are assessed. Accordingly, TDFRP compounds that preferentially bind select ALK receptors can be identified. For example, TDFRP compounds that preferentially bind to ALK-3 receptor compared with binding to other ALK receptors, e.g., ALK-6 (FIGS. 1, 15).
A. Radioligand Receptor Binding Assays For ALK-3, ALK-6 and BMPR-2: […]

NTN mice = settings: cited from earlier work
ALK-6 = ALK-6 (Homo sapiens, UniProt O00238); settings: native protein; cited from earlier work
Sequence of ALK-6 (O00238 14-502): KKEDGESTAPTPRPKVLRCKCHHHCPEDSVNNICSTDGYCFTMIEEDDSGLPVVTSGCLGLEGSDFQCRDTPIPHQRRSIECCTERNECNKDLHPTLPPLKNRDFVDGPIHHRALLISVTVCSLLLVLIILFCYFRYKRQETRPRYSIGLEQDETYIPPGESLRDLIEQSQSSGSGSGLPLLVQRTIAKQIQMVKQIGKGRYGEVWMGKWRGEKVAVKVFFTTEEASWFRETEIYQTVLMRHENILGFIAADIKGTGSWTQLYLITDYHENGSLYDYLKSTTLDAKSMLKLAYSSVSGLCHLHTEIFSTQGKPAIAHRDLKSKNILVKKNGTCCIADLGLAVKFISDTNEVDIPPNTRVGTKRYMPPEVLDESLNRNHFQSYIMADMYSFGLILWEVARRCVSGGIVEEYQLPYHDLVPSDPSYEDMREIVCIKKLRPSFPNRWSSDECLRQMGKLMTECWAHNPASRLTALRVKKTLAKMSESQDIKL

Sequence of ALK-3 (P36894 24-532, species assumed): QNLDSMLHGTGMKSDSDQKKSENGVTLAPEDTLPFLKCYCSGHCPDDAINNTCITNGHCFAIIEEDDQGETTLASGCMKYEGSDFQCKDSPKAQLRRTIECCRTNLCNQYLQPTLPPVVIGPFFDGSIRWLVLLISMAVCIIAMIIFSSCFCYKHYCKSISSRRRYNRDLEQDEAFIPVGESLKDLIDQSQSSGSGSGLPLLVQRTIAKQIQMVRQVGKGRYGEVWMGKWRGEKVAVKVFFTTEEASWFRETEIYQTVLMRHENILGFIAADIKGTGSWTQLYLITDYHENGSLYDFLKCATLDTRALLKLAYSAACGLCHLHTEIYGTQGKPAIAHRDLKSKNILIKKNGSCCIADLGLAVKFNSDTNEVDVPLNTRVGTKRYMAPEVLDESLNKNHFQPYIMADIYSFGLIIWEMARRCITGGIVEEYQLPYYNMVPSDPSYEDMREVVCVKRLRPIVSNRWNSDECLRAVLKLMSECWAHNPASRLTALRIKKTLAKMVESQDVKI

| Molecule | proliferation (incorporation of tritiated thymidine) (PC-3) | proliferation (incorporation of tritiated thymidine) (LNCaP) | binding to BMP Type I ALK-3 receptor compared to ALK-6 receptor (ALK-3) | binding to BMP Type I ALK-3 receptor compared to ALK-6 receptor (ALK-3; listed as SEQ ID NO 45) | progression to chronic renal disease (NTN mice; about 300 micrograms/kg, starting after one week of NTN) | renal pathology (NTN mice; treatment from week 3 or week 4 through week 6) | affinity of binding to ALK-6 (ALK-6) |
| --- | --- | --- | --- | --- | --- | --- | --- |
| CYFDDSSNVLCKKYRS (disulfide 1-11 (inferred); not fully specified) [SEQ ID NO:45] | inhibited | inhibited | binds preferentially | selectively binds | – | – | – |
| B1 | – | – | – | – | prevent progression to chronic renal disease | almost completely reversed renal pathology | higher affinity |
